This assay deals with T1, alpha9 integrin on transfected SW480 colon carcinoma cells (UniProt Q13797 30-1035; P05556 21-798).
T1 construct: whole, on cells; also called α9 integrin; alpha9 beta1 integrin
Briefly: adhesion of transfected SW480 cells to wells coated with tenascin-W. An excerpt: IDG tripeptide motifs have been reported to be the recognition sequence for alpha9 beta1 integrin (Yokosaki et al., 1998). Since mouse tenascin-W contains three IDG motifs we investigated whether α9 integrin could be the receptor for tenascin-W. We plated SW480 colon carcinoma cells transfected either with an empty vector or with the vector containing the cDNA for α9 integrin (Yokosaki et al. J Biol. Chem. 1996 Sep. 27;271(39):24144-50) on tenascin-W coated wells.

T1 sequence (Q13797 30-1035, chain 1 of 2): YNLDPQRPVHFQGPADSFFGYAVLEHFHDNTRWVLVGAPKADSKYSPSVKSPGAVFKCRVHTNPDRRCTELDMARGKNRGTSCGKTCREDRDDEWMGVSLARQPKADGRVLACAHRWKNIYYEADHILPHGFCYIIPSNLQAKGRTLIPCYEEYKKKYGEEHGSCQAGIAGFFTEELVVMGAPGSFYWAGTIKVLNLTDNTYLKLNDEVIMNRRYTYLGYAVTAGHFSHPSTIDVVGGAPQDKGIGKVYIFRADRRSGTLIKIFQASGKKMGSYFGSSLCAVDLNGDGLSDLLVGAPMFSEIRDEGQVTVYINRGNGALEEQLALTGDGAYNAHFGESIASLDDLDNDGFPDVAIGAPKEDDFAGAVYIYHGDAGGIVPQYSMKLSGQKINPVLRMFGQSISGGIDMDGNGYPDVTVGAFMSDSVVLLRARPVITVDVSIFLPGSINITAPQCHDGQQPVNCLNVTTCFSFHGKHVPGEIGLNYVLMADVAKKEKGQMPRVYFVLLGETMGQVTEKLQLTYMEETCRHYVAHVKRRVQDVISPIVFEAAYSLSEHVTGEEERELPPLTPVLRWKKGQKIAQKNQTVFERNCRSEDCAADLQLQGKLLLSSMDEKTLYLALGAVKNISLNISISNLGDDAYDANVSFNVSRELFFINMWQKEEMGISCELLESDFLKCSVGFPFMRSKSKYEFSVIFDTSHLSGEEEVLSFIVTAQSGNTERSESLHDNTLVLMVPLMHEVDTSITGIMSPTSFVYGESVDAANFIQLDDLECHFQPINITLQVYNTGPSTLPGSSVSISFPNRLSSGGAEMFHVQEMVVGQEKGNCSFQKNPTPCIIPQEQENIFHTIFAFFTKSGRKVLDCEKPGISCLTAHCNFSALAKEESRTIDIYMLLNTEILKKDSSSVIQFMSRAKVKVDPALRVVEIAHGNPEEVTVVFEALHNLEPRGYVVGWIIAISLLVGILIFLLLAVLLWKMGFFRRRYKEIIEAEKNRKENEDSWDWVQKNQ
T1 sequence (P05556 21-798, chain 2 of 2): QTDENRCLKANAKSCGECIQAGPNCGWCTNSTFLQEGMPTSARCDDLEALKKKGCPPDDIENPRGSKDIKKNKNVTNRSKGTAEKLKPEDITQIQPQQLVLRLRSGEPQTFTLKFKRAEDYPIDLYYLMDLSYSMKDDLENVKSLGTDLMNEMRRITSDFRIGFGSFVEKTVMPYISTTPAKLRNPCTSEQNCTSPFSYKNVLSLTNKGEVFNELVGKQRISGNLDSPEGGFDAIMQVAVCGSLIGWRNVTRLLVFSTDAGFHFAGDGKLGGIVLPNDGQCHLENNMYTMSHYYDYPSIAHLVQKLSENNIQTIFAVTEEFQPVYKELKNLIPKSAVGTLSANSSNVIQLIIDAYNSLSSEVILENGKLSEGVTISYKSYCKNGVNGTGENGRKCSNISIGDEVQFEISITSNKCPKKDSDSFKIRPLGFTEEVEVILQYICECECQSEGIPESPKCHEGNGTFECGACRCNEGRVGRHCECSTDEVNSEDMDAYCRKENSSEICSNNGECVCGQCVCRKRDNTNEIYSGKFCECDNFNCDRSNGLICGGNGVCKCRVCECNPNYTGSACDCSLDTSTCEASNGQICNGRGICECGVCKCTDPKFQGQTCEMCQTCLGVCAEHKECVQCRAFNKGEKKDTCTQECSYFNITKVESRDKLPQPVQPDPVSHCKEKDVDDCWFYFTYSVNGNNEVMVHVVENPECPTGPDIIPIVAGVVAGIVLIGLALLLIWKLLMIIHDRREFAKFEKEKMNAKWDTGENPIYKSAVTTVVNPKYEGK

B1: purified full-length recombinant mouse tenascin-W (C-terminal 6xHis-tag, secreted from HEK 293 cells) (ligand)
chain: TPESPGCSNKEQQVTVSHTYKIDVPKSALVQVETDPQSLSDDGTSLLAPGEDGEEQNIIFRHNIRLQTPQKNCDLADSVQDLLARMKKLEEEMAELKEQCNTNRCCQGAADLSRHCSGHGTFLPETCSCHCDQGWEGADCDQPTCPGACNGHGRCVDGQCVCDAPYVGVDCAYAACPQDCSGHGVCVQGVCQCHEDFTAEDCSEQRCPGDCSGNGFCDTGECYCEMGFTGPDCSQVVAPQGLQLLKSTENSLLVSWEPSSEVDYYLLSYYPLGKEQATKQVRVPKEQHTYDITGLLPGTKYIVTLRNVKKDISSSPQHLLATTDLAVLGTAWVNEETETSLDVEWENPLTEVDYYKLRYGPLTGQEVTEVTVPKSRDPKSRYDITGLQPGTEYKITVVPIRGDLEGKPILLNGRTEIDGPTNVVTNQVTEDTASVSWDPVRADIDKYVVRYIAPDGETKEKAVPKDQSSTVLTGLKPGEAYKVFVWAERGNQGSKKADTKALTEIDSPENLVTDRVTENSLSVSWDPVEADIDRYVVSYTSVDGETKQVPVKKDQRSTVLTGLSPGVEYKVYVWAEKGDRESKKANTKAPTDIDSPKNLVTDQVTENTLSVSWDPVQANIDRYMVSYTSADGETREVPVPKEKSSTVLTGLRPGVEYKVHVWAQKGTQESRKANTKAPTDIDGPKNLVTDQVTETTLSVSWDPVEADIDRYMVRYTSPDGETKEVPVSKDKSSTVLRGLRPGVEYKVDVWAQKGAQDSRKANTKAPTDIDSPKNLVTEQVAESTATVSWDPVEADIDRYVVRYTSADGETREIPVRKEKSSTVLTGLRPGVEYTVQVWAQKGARESKKAKTKAPTEIDSPKNLVTNRVTENTATISWDPVRANIDRYMVRYTSADGETKEIPVSKDQSNTILTGLKPGMEYTIHVWAQKGARESKKADTKALTEIDPPRNLRPFGVTHSGGVLTWLPPSAQIDGYILTYQFPNGTVKGVELPRGQQRFELQDLEQGVTYPVSLVAFKGNQRSRTVSTTLSTVDARFPHPSDCSQVQQNTNAASGLYTIYLNGDASRPMQVYCDMDTDGGGWIVFQRRNTGQLDFFKRWRSYVEGFGDPMKEFWLGLDKLHNLTTGTTTRYEVRADLQTFNESAYAVYDFFQVASSKERYKLSVGKYRGTAGDALTYHNGWKFTTFDRDSDIALSNCALTHHGGWWYKNCHLANPNGKYGETKHSEGVNWEPWKGHEFSIPYVELKIRPFGYSRDRFSGRKKRSIGKARMFHHHHHH
notes: also called full length mouse tenascin-W protein; purified tenascin-W
As to B1, the binding result is recorded as “no binding”.

The values are drawn from US20050202430A1 (Novartis, published 2005).
